{
  "source": "paper PMC4312047",
  "key": {"[1]": {"target": "PHB domain of B. subtilis YuaG (FloT) (Bacillus subtilis)", "test": "native gel or EMSA; blue native PAGE of the isolated PHB domain, according to Wittig et al."}, "[2]": {"target": "PHB domain of B. subtilis YuaG (FloT) (Bacillus subtilis)", "test": "SDS-PAGE (SDS-resistant oligomers); purified PHB domain without cross-linking on denaturing SDS-PAGE; colloidal Coomassie blue staining or anti-His immunoblot"}, "[3]": {"target": "PHB domain of B. subtilis YuaG (FloT) (Bacillus subtilis)", "test": "SEC; Superose 6 10/300 GL, buffer A (50 mM TrisHCl pH 7.5, 150 mM NaCl, 5 mM MgCl2), RT; column calibrated with the BIO-RAD Gel Filtration Standard; fractions checked by SDS-PAGE and anti-His immunoblot"}},
  "note": "“And” between values parts separate entries of the source, which are not always exact repeats. Equal values may be shown once.",
  "data": [
    {"substance": "PHB domain of B. subtilis YuaG (FloT) (domain or fragment)", "values": [
      {"measurement": "stoichiometry N", "setting": "[1]", "result": 14},
      {"measurement": "stoichiometry N", "setting": "[2]", "result": "4 and 8"},
      {"measurement": "stoichiometry N", "setting": "[3]", "result": 14.8}
    ]}
  ]
}
